Entries after “also recorded” stand apart in the source; their conditions may differ.
How the values were obtained:
[1] = test system: χ; assay: ITC of SSB-A binding to χ; design: species or system Escherichia coli; settings: Buffer T pH 8.1, 200 mM NaCl, 25°C
Protocol: The concentrations were determined thereafter. […]
Figure S7. Results from various control ITC titrations of (a) SSB-A and RecO at 15°C and (b) 25°C, (c) SSB-A and c, (d) P65 and (dT)70, (e) (dT)70 and SSB-A, and (f) (dT)70 and wtSSB. (a) SSB-A (10 µM), a homo-tetrameric SSB variant containing an additional six amino acids, TGASGT, at the C-terminus of each subunit, was titrated into […]
(5.9 µM) was titrated into c (1 µM) in buffer T (10 mM Tris-HCl, pH 8.1, 200 mM NaCl, […]
0.1 mM EDTA) at 25° C. […] (d) dT70 (60 µM) was […]
titrated into P65 (2 µM) in buffer BTP (pH 7.0, 20 mM NaCl) at 25° C. P65, the full-length […]
(dT)70. (e) (dT)70 (15 µM) was titrated into SSB-A (1 µM) in buffer T at 25° C. SSB-A (also on this page, place not known: 15°C 25°C. 25°C. 25°C. 25°C. 2.00 kcal mol-1 of injectant kcal mol-1 of injectant [SSB-A]tot/[RecO]tot kcal mol-1 of injectant [SSB-A]tot/[c]tot (f)(d))

[2] = test system: E. coli RecO; assay: ITC of SSB tetramers (apo) binding to RecO; design: species or system Escherichia coli
Protocol: The concentrations were determined thereafter.

[3] = test system: (dT)70; assay: ITC of SSB tetramers with (dT)70; type: binding
Protocol: Isothermal titration calorimetry (ITC) experiments were performed using a VP-ITC titration microcalorimeter (Malvern Panalytical, Malvern, UK) ([68]). All proteins and oligonucleotides were dialyzed extensively against the indicated buffer and cleared by centrifugation at 14 000 rpm for 15 min at 4°C. The concentrations were determined thereafter. For experiments with the SSB-Ct peptides and SIPs, 40–50 μM peptides were titrated into 1–2 μM SIPs in Buffer BTP at pH 8.0 and 50 mM NaCl. For experiments with the full-length SSB and its deletion mutants and SIPs, SSB tetramer (8–10 μM) was titrated into SIP (1 μM) in Buffer BTP at pH 7.0 and 200 mM NaCl. The heats of dilution were obtained by blank titrations in which the titrant species is titrated into the buffer, and corrections for heats of dilution were applied.
RecO (1 µM) in buffer BTP (pH 7.0, 200 mM NaCl) at 15° C and (b) 25° C.
(f) (dT)70 (15 µM) is titrated into

[4] = test system: PriA; settings: previous study; cited from earlier work
Protocol: All binding reactions were performed under identical solution conditions, although additional experiments were performed at a lower [NaCl] for PriC as indicated, ...

[5] = test system: DNA Pol III (χ); settings: cited from earlier work
Text: When DNA is bound to the DBD, the acidic tip no longer interacts with the DBD and thus is more available to interact with a SIP. This is supported by the observation that ΔH = −6.0 ± 0.1 kcal/mol for RecO binding to the SSBΔ120-166–(dT)70 complex, which should not contain contributions from the acidic tip-DBD intramolecular interactions.

[6] = test system: RecO; settings: for sedimentation coefficient, SSB alone: 0.35 μM tetramer, BTP pH 7.0, 200 mM NaCl, 25°C, no RecO
Protocol: Sedimentation velocity experiments were performed with an Optima XL-A analytical ultracentrifuge and An50Ti rotor (Beckman Coulter, Fullerton, CA, USA) at 42 000 rpm (25°C) as described ([50]). The concentrations used were 1–2 μM SIPs, 0.3–0.5 μM SSB tetramers, while monitoring absorbance at 230 or 280 nm. The experiments with SSB-Ct peptides were performed in Buffer BTP at pH 8.0 and 50 mM NaCl. The experiment with SSB proteins and the deletion constructs were performed in Buffer BTP at pH 7.0 and 200 mm NaCl. The sample (380 μl) and buffer (394 μl) were loaded into each sector of an Epon charcoal-filled two-sector centerpiece. Absorbance data were collected by scanning the sample cells at intervals of 0.003 cm. Data were analyzed using SEDFIT, to obtain c(s) distributions ([70]). The c(s) distribution function defines the populations of species with different sedimentation rates and represents a variant of the distribution of Lamm equation solutions ([70]). The density and viscosity of the experimental buffers at 25°C were determined using [sequence] […] The partial specific volume of (dT)70 used was 0.56 ml/g. In the experiments involving more than one species, the partial specific volumes of complexes were calculated assuming additivity using Equation (4), where = number of moles of species ‘i’, = molecular weight of species ‘i’, and = partial specific volume of each species i.(4)
RecO binding to SSB tetramers with portions of the IDL deleted. […] (C) The results of sedimentation velocity experiments, plotted as the c(s) distribution ([70]) for each SSB construct (0.35 μM tetramer) in the absence (black lines) and presence (red lines) of 2.5 molar excess of RecO (3.5 μM) per C-terminus.

[7] = target: Escherichia coli PriC (E. coli) (UniProt P23862); assay: AUC; sedimentation velocity, 42 000 rpm, 25°C; PriC at 2 μM, without and with 30-fold excess P15; buffer BTP pH 8.0, same conditions as the ITC of PriC
[8] = target: T1, Escherichia coli PriC (E. coli, UniProt P23862 1-175); assay: ITC; SSB-Ct peptide titrated into PriC; buffer BTP pH 8.0, 10 mM NaCl, 25°C; N fixed to 1 for the values of Table 1; settings: both partners purified
T1 construct: E. coli PriC, replication restart protein; source: E. coli BL21(DE3), plasmid pET11a-EcoPriC (pAM001), purified (Macro-Prep High S, HiPrep Sephacryl S-200 HR)
T1 sequence (looked up): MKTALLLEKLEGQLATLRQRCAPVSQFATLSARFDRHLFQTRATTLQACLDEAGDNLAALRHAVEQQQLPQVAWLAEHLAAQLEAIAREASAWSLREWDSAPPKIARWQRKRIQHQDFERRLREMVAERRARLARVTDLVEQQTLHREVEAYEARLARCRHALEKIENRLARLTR

[9] = target: T2, Escherichia coli RecO protein (E. coli, UniProt P0A7H3 1-242); assay: ITC; P15 and RecO; buffer BTP pH 7.0, 200 mM NaCl, 15°C; N fixed to 1; settings: both partners purified
T2 construct: E. coli RecO, recombination mediator of the RecF pathway; source: E. coli BL21(DE3)pLysS, plasmid pMCSG7, purified (Ni-NTA, HiTrap Heparin HP) after His-tag cleavage with TEV protease
T2 sequence (looked up): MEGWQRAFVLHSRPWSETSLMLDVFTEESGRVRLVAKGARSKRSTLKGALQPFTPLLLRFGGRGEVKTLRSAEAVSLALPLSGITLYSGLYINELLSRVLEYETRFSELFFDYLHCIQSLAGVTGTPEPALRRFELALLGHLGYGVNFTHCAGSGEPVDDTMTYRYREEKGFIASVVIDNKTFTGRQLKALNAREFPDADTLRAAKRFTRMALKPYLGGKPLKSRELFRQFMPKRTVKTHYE

[10] = target: T2, Escherichia coli RecO protein; assay: ITC; SSB-Ct peptide (40–50 μM) titrated into SIP (1–2 μM); buffer BTP (20 mM Bis-Tris Propane, 25% glycerol, 1 mM TCEP) pH 8.0, 50 mM NaCl, 25°C; observed association constants; N fixed to 1 for the values of Table 1; settings: both partners purified
[11] = target: T3, chi (χ) subunit of DNA polymerase III (E. coli, UniProt P28905 1-147); assay: as above; settings: both partners purified
T3 construct: E. coli DNA polymerase III chi subunit; also called χ protein; DNA Pol III (χ)

[12] = target: T4, Escherichia coli PriA (E. coli, UniProt P17888 1-732); assay: as above; settings: both partners purified
T4 construct: E. coli PriA, replication restart protein

[13] = target: T2, Escherichia coli RecO protein; assay: ITC; P15 and RecO; buffer BTP pH 7.0, 200 mM NaCl, 25°C; N fixed to 1; settings: both partners purified
[14] = target: T2, Escherichia coli RecO protein; assay: ITC; SSB-Ct peptide (40–50 μM) titrated into SIP (1–2 μM); buffer BTP (20 mM Bis-Tris Propane, 25% glycerol, 1 mM TCEP) pH 8.0, 50 mM NaCl, 25°C; observed association constants; N fixed to 1 for the values of Table 1; settings: both partners purified; remark: listed apart in the source
[15] = target: T3, chi (χ) subunit of DNA polymerase III; assay: as above; settings: both partners purified; remark: listed apart in the source
[16] = target: T4, Escherichia coli PriA; assay: as above; settings: both partners purified; remark: listed apart in the source
[17] = target: T2, Escherichia coli RecO protein; assay: ITC; P15 and RecO; buffer BTP pH 8, 200 mM NaCl, 25°C; N fixed to 1; settings: both partners purified
[18] = target: T2, Escherichia coli RecO protein; assay: ITC; P15 and RecO; buffer BTP pH 7.0, 200 mM NaCl, 37°C; N fixed to 1; settings: both partners purified
[19] = target: T1, Escherichia coli PriC; assay: ITC; SSB-Ct peptide titrated into PriC; buffer BTP pH 8.0, 10 mM NaCl, 25°C; N fixed to 1 for the values of Table 1; settings: both partners purified; remark: listed apart in the source
[20] = target: the molecule itself; assay: AUC; sedimentation velocity, 42 000 rpm, 25°C; SSB construct 0.35 μM tetramer alone and with 3.5 μM RecO (2.5 molar excess per C-terminus); buffer BTP pH 7.0, 200 mM NaCl
[21] = target: Escherichia coli RecO protein (E. coli) (UniProt P0A7H3); assay: ITC; SSB tetramer–(dT)70 complex (9–10 μM) titrated into RecO (1 μM); buffer BTP pH 7.0, 200 mM NaCl, 25°C; N fixed to 4, K and ΔH per C-terminus
[22] = target: Escherichia coli RecO protein (E. coli) (UniProt P0A7H3); assay: ITC; SSB tetramer (10 µM) titrated into RecO (1 µM); buffer BTP pH 7.0, 200 mM NaCl, 10°C; N floated, N = RecO per SSB tetramer; ΔH per C-terminus
[23] = target: Escherichia coli RecO protein (E. coli) (UniProt P0A7H3); assay: ITC; apo SSBΔ120-166 tetramer and RecO; 10°C; N fixed to 4 in Table 3
[24] = target: Escherichia coli RecO protein (E. coli) (UniProt P0A7H3); assay: ITC; apo SSB tetramer (9–10 μM) titrated into RecO (1 μM); buffer BTP pH 7.0, 200 mM NaCl, 25°C; N fixed to 4 RecO per tetramer, K and ΔH per C-terminus
[25] = target: SSB (wtSSB) (Escherichia coli, UniProt P0AGE0 2-178); assay: ITC; 1:1 complex at 200 mM NaCl, (SSB)65 mode; (dT)70 (15 uM) titrated with SSB; ITC; buffer BTP (20 mM Bis-Tris propane, 25% v/v glycerol, 1 mM TCEP), pH 7.0, 200 mM NaCl, 25 C for SSB experiments; buffer/pH of individual (dT)70 titrations; settings: protein: recombinant; chain copies: 4; single-stranded
[26] = target: SSB-A (Escherichia coli, UniProt P0AGE0 2-178+=TGASGT, internal_change); assay: ITC; (dT)70 titrated with SSB-A; stoichiometric binding, 1:1; dH similar to wtSSB (-131 kcal/mol in earlier work); ITC; buffer BTP (20 mM Bis-Tris propane, 25% v/v glycerol, 1 mM TCEP), pH 7.0, 200 mM NaCl, 25 C for SSB experiments; buffer/pH of individual (dT)70 titrations; settings: protein: recombinant; chain copies: 4; single-stranded
[27] = target: P65 (SSB C-terminal peptide) (Escherichia coli, UniProt P0AGE0 114-178); assay: ITC; no detectable interaction; ITC; buffer BTP (20 mM Bis-Tris propane, 25% v/v glycerol, 1 mM TCEP), pH 7.0, 200 mM NaCl, 25 C for SSB experiments; buffer/pH of individual (dT)70 titrations; settings: single-stranded

Molecule: SSB-A: additional six amino acids, TGASGT, extending the C-terminus of wtSSB
- binding to χ by ITC [1]: does not show binding
- binding to RecO by ITC ([2]; absence of ssDNA, BTP pH 7.0, 200 mM NaCl, 15°C and 25°C): not interact with RecO; also recorded: eliminates binding to RecO
- binding to (dT)70 by ITC ([3]; Buffer T pH 8.1, 200 mM NaCl, 25°C): binds stoichiometrically

Molecule: MDFDDDIPF [P9]
- binding to PriA [4]: binds with specificity
- affinity and ΔH for χ binding versus (dT)70-bound SSB [5]: very similar
- binding to χ ([5]; previous study): binds with specificity

Molecule: wtSSB: E. coli single strand DNA binding protein, homo-tetramer, wild type
- K ([2]; apo, 25°C, BTP pH 7, 200 mM NaCl): (1.5 ± 0.2) × 10^6 M^−1
- binding to (dT)70 by ITC ([3]; BTP pH 7.0, 200 mM NaCl): binds stoichiometrically
- sedimentation coefficient, SSB alone [6]: 1.4 S
- complex formation with RecO ([6]; 10-fold molar excess of RecO to SSB tetramer): RecO forms complexes with wtSSB

Molecule: Escherichia coli PriC (from UniProt P23862 1-175) (natural protein)
- percent of the monomeric species [7]: 48.1%

B1: SSB-Ct peptide P15 (C-terminal 15 amino acids of E. coli SSB) (peptide, UniProt P0AGE0 164-178, looked up)
peptide: PSNEPPMDFDDDIPF
notes: E. coli SSB, the C-terminal 15 amino acids; Holds none of the PXXP motifs; also called acidic tip peptide; source: synthetic peptide; bought: WatsonBio
- stoichiometry N [8]: 1
- dH [9]: -2.4 ± 0.2 kcal/mol
- dH [10]: -5.2 ± 0.1 kcal/mol
- dH [11]: -9.3 ± 0.1 kcal/mol
- dH [12]: -9.6 ± 0.3 kcal/mol
- dH [13]: -6 ± 0.2 kcal/mol
- stoichiometry N [14]: 1
- stoichiometry N [15]: 1
- stoichiometry N [16]: 1
- dH [17]: -3.9 ± 0.1 kcal/mol
- dH [18]: -7.8 ± 0.8 kcal/mol
- dH [19]: -2.7 ± 0.1 kcal/mol

B2: SSBΔ120-166 tetramer (natural protein, E. coli, UniProt P0AGE0 1-178, looked up)
chain: MASRGVNKVILVGNLGQDPEVRYMPNGGAVANITLATSESWRDKATGEMKEQTEWHRVVLFGKLAEVASEYLRKGSQVYIEGQLRTRKWTDQSGQDRYTTEVVVNVGGTMQMLGGRQGGGPPMDFDDDIPF
notes: E. coli SSB with residues 120-166 of the IDL deleted, acidic tip kept; All three PXXP motifs deleted; only nine residues of the IDL left; Used apo and in complex with (dT)70
- stoichiometry N [20]: 4
- dH (per tip, ΔH/4) [21]: -6 kcal/mol
- Ka [22]: 373000 M⁻¹
- stoichiometry N [22]: 4.03
- Ka [23]: 370000 M⁻¹
- dH (per tip, ΔH/4) [23]: -8.1 kcal/mol
- K (observed association equilibrium constant) ([2]; apo, 25°C, BTP pH 7.0, 200 mM NaCl, N fixed to 4): Not detected
- RecO binding detected by ITC ([2]; apo, 25°C, pH 7.0, 200 mM NaCl): undetectable; also recorded: could not be detected
- sedimentation coefficient, SSB alone [6]: 1.3 S
- dH (per tip, ΔH/4) [24]: 0 kcal/mol

B3: (dT)70 (ssDNA)
DNA: TTTTTTTTTTTTTTTTTTTTTTTTTTTTTTTTTTTTTTTTTTTTTTTTTTTTTTTTTTTTTTTTTTTTTT
- binding result [25]: binds
- binding result [26]: binds
- binding result [27]: no binding

From article PMC7145534, “Are the intrinsically disordered linkers involved in SSB binding to accessory proteins?” (Nucleic Acids Research, 2019)
